Measurements published in patent US12269859B2, “Synthetic immune receptors and methods of use thereof” (Angeles Therapeutics, Inc., priority 2016, dated 2025).

B1: 041816-C01 (protein)
chain: MALPVTALLLPLALLLHAARPDTIVLTQSPASLAVSLGQRATISCRASESVDSYGNSFMHWYQQKPGQPPKLLIYLASNLESGVPARFSGSGSRTDFTLTIDPVEADDAATYYCQQNNYDPWTFGGGTKLEIKLEGKPIPNPLLGLDSTGSGEDLKNVFPPEVAVFEPSKAEIAHTQKATLVCLATGFYPDHVELSWWVNGKEVHSGVCTDPQPLKEQPALNDSRYCLSSRLRVSATFWQNPRNHFRCQVQFYGLSENDEWTQDRAKPVTQIVSAEAWGRADCGITSASYHQGVLSATILYEILLGKATLYAVLVSALVLMAMVKRKDSRGRAKRSGSGATNFSLLKQAGDVEENPGPTSMDWIWRILFLVGAATGAHSFEEVQLQQSGPELVKPGASVKMSCKASGYTFTSYVMHWVKQKPGQGLEWIGYINPYNDGTKYNEKFKGKATLTSDTSSSTAYMELNSLTSEDSAVYFCARPIYFDNDYFDYWGQGTTLKVSSTREQKLISEEDGSGTPFPSLAPPIMLLVDGKQQMVVVCLVLDVAPPGLDSPIWFSAGNGSALDAFTYGPSPATDGTWTNLAHLSLPSEELASWEPLVCHTGPGAEGHSRSTQPMHLSGEASTARTCPQEPLRGTPGGALWLGVLRLLLFKLLLFDLLLTCSCLCDPAGPLPSPATTTRLRALGSHRLHPATETGGREATSSPRPQPRDRRWGDTPPGRKPGSPVRAKRSGSGVKQTLNFDLLKLAGDVESNPGPSRGHMTEYKPTVRLATRDDVPRAVRTLAAAFADYPATRHTVDPDRHIERVTELQELFLTRVGLDIGKVWVADDGAAVAVWTTPESVEAGAVFAEIGPRMAELSGSRLAAQQQMEGLLAPHRPKEPAWFLATVGVSPDHQGKGLGSAVVLPGVEAAERAGVPAFLETSAPRNLPFYERLGFTVTADVEVPEGPRTWCMTRKPGA
modifications: Polynucleotide encoding a Synthetic Immune Receptor (SIR)
B2: 092216-G01 (protein)
chain: MALPVTALLLPLALLLHAARPLEGKPIPNPLLGLDSTGSGEDLKNVFPPEVAVFEPSKAEIAHTQKATLVCLATGFYPDHVELSWWVNGKEVHSGVCTDPQPLKEQPALNDSRYCLSSRLRVSATFWQNPRNHFRCQVQFYGLSENDEWTQDRAKPVTQIVSAEAWGRADCGITSASYHQGVLSATILYEILLGKATLYAVLVSALVLMAMVKRKDSRGRAKRSGSGATNFSLLKQAGDVEENPGPTSTMALPVTALLLPLALLLHAARPDIQMTQSPSSLSASLGERVSLTCRATQELSGYLSWLQQKPDGTIKRLIYAASTLDSGVPKRFSGNRSGSDYSLTISSLESEDFADYYCLQYAIYPYTFGGGTKLEIKGGGGSGGGGSGGGGSEVQLQQSGPELVKPGASVKMSCKASGYTFTSYFIHWVKQKPGQGLEWIGFINPYNDGSKYNEKFKGKATLTSDKSSSTAYMELSSLTSEDSAVYYCTRDDGYYGYAMDYWGQGTSVTVSSTREQKLISEEDGSGIQNPDPAVYQLRDSKSSDKSVCLFTDFDSQTNVSQSKDSDVYITDKCVLDMRSMDFKSNSAVAWSNKSDFACANAFNNSIIPEDTFFPSSDVPCDVKLVEKSFETDTNLNFQNLSVIGFRILLLKVAGFNLLMTLRLWSSRAKRSGSGVKQTLNFDLLKLAGDVESNPGPSRGHMTEYKPTVRLATRDDVPRAVRTLAAAFADYPATRHTVDPDRHIERVTELQELFLTRVGLDIGKVWVADDGAAVAVWTTPESVEAGAVFAEIGPRMAELSGSRLAAQQQMEGLLAPHRPKEPAWFLATVGVSPDHQGKGLGSAVVLPGVEAAERAGVPAFLETSAPRNLPFYERLGFTVTADVEVPEGPRTWCMTRKPGA
modifications: Synthetic Immune Receptor (SIR)

Test system: target antigen-expressing cell line
Test: Jurkat NFAT-GFP assay, coculture with target cell lines expressing the respective target antigen (summary Table 10A)
Assay type: cell-based, human
Design: key: The signs +/−, +, 2+ etc. after the name of the cell lines indicate the relative degree of positivity on the Jurkat-NFAT-GFP assay as measured by the % GFP positive cells; +: relative degree of positivity on the Jurkat-NFAT-GFP assay as measured by the % GFP positive cells; 2+: relative degree of positivity on the Jurkat-NFAT-GFP assay as measured by the % GFP positive cells
Procedure, shortened: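 Stable SIR expression in Jurkat-NFAT-GFP cells by lentiviral transfer and puromycin selection; coculture with target cells (E:T approximately 1:2) for 4 to 18 hours; flow cytometric measurement of NFAT-driven GFP; scoring as positive when % GFP-positive cells exceeds that of parental reporter cells.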

Row | Molecule | NFAT-GFP ASSAY Positive Cell lines (coculture with L363 cells) | NFAT-GFP ASSAY Positive Cell lines (coculture with RAJI cells) | NFAT-GFP ASSAY Positive Cell lines (coculture with U266 cells) | NFAT-GFP ASSAY Positive Cell lines (coculture with HL60 cells)
1 | B1 | (+/−), L363 (+/−) | RAJI (+/−), U266 | (+/−), L363 (+/−) | –
2 | B2 | – | – | – | HL60 (+/−)
